Assay results: article PMC12221289, “Armless hairpin-like tRNAs in Romanomermis culicivorax: Evolutionary adaptation of a mitochondrial elongation factor EF-Tu”

Legend:
Experiment in all cases: DRaCALA; GTP; DRaCALA of EF-Tu:GTP:Phe-tRNA ternary complexes, 2 ul spotted on nitrocellulose, n>=3; binding buffer, pH and temperature not in the material
Bta mt-EF-Tu D384K = Bta mt-EF-Tu D384K (Bos taurus, UniProt P49410 44-452, D384K)
Bta mt-EF-Tu D384A = Bta mt-EF-Tu D384A (Bos taurus, UniProt P49410 44-452, D384A)
Bta mt-EF-Tu = Bta mt-EF-Tu (Bos taurus, UniProt P49410 44-452)

B1: Phe-tRNAPhe (canonical) (structured_RNA)
RNA: GCGGAUUUAGCUCAGUUGGGAGAGCGCCAGACUGAAGAUCUGGAGGUCCUGUGUUCGAUCCACAGAAUUCGCACCA
modifications: 3'-aminoacylated with Phe (flexizyme)
Kd (Bta mt-EF-Tu D384K): 76.6 nM
Kd (Bta mt-EF-Tu D384A): 11.5 nM
Kd (Bta mt-EF-Tu): 5.8 nM
